From patent publication US20120058906A1 (published 2012) come the findings set out here.

Assay [1] addresses T1, rHuman ErbB2/Fc Chimera, CF (R&D Systems Cat#1129-ER) (human, UniProt P04626 23-652).
T1 construct: Bought Fc chimera; also called HER2/neu; human epidermal growth factor 2 receptor; Fc part of the bought chimera not given
Kind of assay: ECL (MSD Multi-Spot) titration, antigen spotted on plate; Fab 60 nM; blank spot 1433.

Assay [2] concerns the target T2, Recombinant Human DLL4 (R&D Systems Cat#1506-D4/CF) (human, UniProt Q9NR61 27-524).
T2 construct: Bought recombinant protein; also called delta-like protein 4
The description is as above.

Assay [3] concerns the target T3, rHuman IGF-1 sR (IGF-1 sR), CF (R&D Systems Cat#391-GR) (human, UniProt P08069 31-932).
T3 construct: Bought soluble receptor; also called insulin-like growth factor-1 soluble receptor; IGF-R1
The assay is described as above.

In assay [4] the target is T4, rHuman CD44/Fc Chimera, CF (R&D Systems Cat#3660-CD) (human, UniProt P16070 21-220).
T4 construct: Bought Fc chimera; Fc part of the bought chimera not given
The description is as above.

The target in assay [5] is T1, rHuman ErbB2/Fc Chimera, CF (R&D …). The assay is described as follows: ECL (MSD Multi-Spot) titration, antigen spotted on plate; Fab 3.75 nM; blank spot 191.
The target of assay [6] is T2, Recombinant Human DLL4 (R&D Systems …). The assay is described as above.
In assay [7] the target is T3, rHuman IGF-1 sR (IGF-1 sR), CF (R&D …). Described as above.
Assay [8] addresses T4, rHuman CD44/Fc Chimera, CF (R&D Systems …). Described as above.
Assay [9] concerns the target T1, rHuman ErbB2/Fc Chimera, CF (R&D …). The assay is described as follows: ECL (MSD Multi-Spot) titration, antigen spotted on plate; Fab 0.9375 nM; blank spot 153.
Assay [10] concerns the target T2, Recombinant Human DLL4 (R&D Systems …). The description is as above.
Assay [11] addresses T3, rHuman IGF-1 sR (IGF-1 sR), CF (R&D …). The description is as above.
Assay [12] addresses T4, rHuman CD44/Fc Chimera, CF (R&D Systems …). The assay is described as above.
Assay [13] has as its target T1, rHuman ErbB2/Fc Chimera, CF (R&D …). The assay is described as follows: ECL (MSD Multi-Spot) titration, antigen spotted on plate; Fab 15 nM; blank spot 536.
For assay [14], the target named is T2, Recombinant Human DLL4 (R&D Systems …). Described as above.
The target of assay [15] is T3, rHuman IGF-1 sR (IGF-1 sR), CF (R&D …). The description is as above.
Assay [16] has as its target T4, rHuman CD44/Fc Chimera, CF (R&D Systems …). The description is as above.
In assay [17] the target is T5, rHuman IGF-1 sR, (IGF-1 sR), CF (R&D Systems Cat#391-GR) (human, UniProt P08069 31-932).
T5 construct: also called insulin-like growth factor-1 soluble receptor; IGF-R1
Kind of assay: MSD ECL multi-spot plate; Fab 4.375 nM; blank spot 305.

The target of assay [18] is T6, rHuman ErbB2/Fc Chimera, CF (R&D Systems Cat#1129-ER) (human, UniProt P04626 23-652).
T6 construct: also called HER2/neu; human epidermal growth factor 2 receptor; Fc part of the bought chimera not given
The description is as above.

Assay [19] concerns the target T7, rHuman Notch-1/Fc Chimera, CF (R&D Systems Cat#3647-TK) (human, UniProt P46531 19-526).
T7 construct: Fc part of the bought chimera not given
Described as above.

For assay [20], the target named is T8, rHuman CD44/Fc Chimera, CF (R&D Systems Cat#3660-CD) (human, UniProt P16070 21-220).
T8 construct: Fc part of the bought chimera not given
The description is as above.

The target in assay [21] is T9, rHuman HGF R/c-MET/Fc Chimera, CF (R&D Systems Cat#358-MT/CF) (human, UniProt P08581 25-932).
T9 construct: also called HGF R/Fc; hepatocyte growth factor receptor; Fc part of the bought chimera not given
The description is as above.

Assay [22] concerns the target T10, Recombinant Human DLL4 (R&D Systems Cat#1506-D4/CF) (human, UniProt Q9NR61 27-524).
T10 construct: also called delta-like protein 4
Described as above.

Assay [23] concerns the target T5, rHuman IGF-1 sR, (IGF-1 sR), CF (R&D …). Kind of assay: MSD ECL multi-spot plate; Fab 70 nM; blank spot 635.
Assay [24] concerns the target T6, rHuman ErbB2/Fc Chimera, CF (R&D …). The description is as above.
Assay [25] has as its target T7, rHuman Notch-1/Fc Chimera, CF (R&D …). Described as above.
Assay [26] has as its target T8, rHuman CD44/Fc Chimera, CF (R&D Systems …). The description is as above.
Assay [27] deals with T9, rHuman HGF R/c-MET/Fc Chimera, CF (R&D …). The description is as above.
Assay [28] deals with T10, Recombinant Human DLL4 (R&D Systems …). The assay is described as above.
The target of assay [29] is T5, rHuman IGF-1 sR, (IGF-1 sR), CF (R&D …). The assay is described as follows: MSD ECL multi-spot plate; Fab 280 nM; blank spot 1691.
The target of assay [30] is T6, rHuman ErbB2/Fc Chimera, CF (R&D …). Described as above.
Assay [31] addresses T7, rHuman Notch-1/Fc Chimera, CF (R&D …). The assay is described as above.
For assay [32], the target named is T8, rHuman CD44/Fc Chimera, CF (R&D Systems …). Described as above.
For assay [33], the target named is T9, rHuman HGF R/c-MET/Fc Chimera, CF (R&D …). Described as above.
Assay [34] has as its target T10, Recombinant Human DLL4 (R&D Systems …). The description is as above.
In assay [35] the target is T5, rHuman IGF-1 sR, (IGF-1 sR), CF (R&D …). Kind of assay: MSD ECL multi-spot plate; Fab 17.5 nM; blank spot 304.
Assay [36] addresses T7, rHuman Notch-1/Fc Chimera, CF (R&D …). The assay is described as above.
For assay [37], the target named is T9, rHuman HGF R/c-MET/Fc Chimera, CF (R&D …). Described as above.
Assay [38] deals with T10, Recombinant Human DLL4 (R&D Systems …). The description is as above.
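Also: blank spot per well as comparator with Hit at signal to blank ratio of 4 or more.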

B1: Fab VH1-3_IGHD4-23*01_IGHJ4*01 & L12_IGKJ1*01 (Fab, V domains shown)
VH: QVQLVQSGAEVKKPGASVKVSCKASGYTFTSYAMHWVRQAPGQRLEWMGWSNAGNGNTKYSQEFQGRVTITRDTSASTAYMELSSLRSEDMAVYYCARDDYGGNSDYFDYWGQGTLVTVSS
VL: not shown
B1: the ECL signal is 2160 in assay [1]; 17300 in [2]; 2670 in [3]; 2360 in assay [4]; 291 in [5]; 1570 in [6]. In addition, the ECL signal worked out at 314 in assay [7]; 307 in assay [8]; 268 in assay [9]; 453 in assay [10]; 204 in assay [11]; 251 in assay [12]. For the same molecule, the ECL signal is 740 in assay [13], 7730 in [14], 859 in assay [15] and 748 in [16].

B2: Fab VH1-46_IGHD2-15*01_IGHJ2*01 & L12_IGKJ1*01 (Fab, V domains shown)
VH: QVQLVQSGAEVKKPGASVKVSCKASGYTFTSYYMHWVRQAPGQGLEWMGIINPSGGSTSYAQKFQGRVTMTRDTSTSTVYMELSSLRSEDTAVYYCAREGYCSGGSCYSYWYFDLWGRGTLVTVSS
VL: not shown
Regarding B2, the ECL signal in assay [17] came out at 369 ECL signal; in assay [18], 384 ECL signal; in assay [19] it was 480 ECL signal; in [20], 424 ECL signal; in assay [21], 193 ECL signal; in assay [22], 558 ECL signal. The ECL signal in assay [23] turned out to be 1320 ECL signal; in [24] it was 1360 ECL signal; in assay [25], 1490 ECL signal; in assay [26], 1370 ECL signal; in [27], 1290 ECL signal; in assay [28], 2750 ECL signal. Further, the ECL signal is 3530 ECL signal in [29]; 3950 ECL signal in assay [30]; 4380 ECL signal in assay [31]; 4070 ECL signal in [32]; 3560 ECL signal in assay [33]; 8110 ECL signal in assay [34]. In addition, the ECL signal was determined as 626 ECL signal in [35], 680 ECL signal in [36], 565 ECL signal in assay [37] and 1220 ECL signal in [38].
